# Assay results taken from the supplement of paper PMC9112550, “Optimization of the antimicrobial peptide Bac7 by deep mutational scanning” (BMC Biology, 2022).
# System: Escherichia coli TOP10
# Assay: shrunken log2 fold change of peptide-encoding DNA abundance (4.5 h post-induction vs induction); higher = less antimicrobial activity (less host growth inhibition)
# Conditions: time post-induction: 4.5 h; library: site-saturation at positions 5, 18, 19, 20
# 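Further: peptides expressed intracellularly from a pBAD plasmid library in pooled LB shake-flask culture, induced with 0.3% L-arabinose, DNA abundance read by NGS, three biological replicates, DESeq2 with apeglm shrinkage.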
row,Sequence,shrunken log2 fold change
1,RRIRHRPPRLPRPRPRPFHKPRP,-0.0218
2,RRIRKRPPRLPRPRPRPWGLPRP,-0.22
3,RRIRERPPRLPRPRPRPLVFPRP,-0.153
4,RRIRARPPRLPRPRPRPDQEPRP,0.0233
5,RRIRNRPPRLPRPRPRPPHPPRP,0.292
6,RRIRIRPPRLPRPRPRPKKQPRP,-0.194
7,RRIRRRPPRLPRPRPRPFNGPRP,0.0131
8,RRIRARPPRLPRPRPRPQLQPRP,0.426
9,RRIRVRPPRLPRPRPRPCSQPRP,-0.0327
10,RRIRVRPPRLPRPRPRPDVGPRP,-0.13
11,RRIRDRPPRLPRPRPRPPVHPRP,0.105
12,RRIRVRPPRLPRPRPRPKNYPRP,-0.359
13,RRIRYRPPRLPRPRPRPVNTPRP,-0.473
14,RRIRQRPPRLPRPRPRPIHVPRP,-0.15
15,RRIRMRPPRLPRPRPRPKFVPRP,0.0832
16,RRIRFRPPRLPRPRPRPFNMPRP,-0.314
17,RRIRARPPRLPRPRPRPIYLPRP,-0.152
18,RRIRGRPPRLPRPRPRPTCCPRP,1.2
19,RRIRCRPPRLPRPRPRPMFAPRP,0.186
20,RRIRLRPPRLPRPRPRPIQPPRP,0.0112
21,RRIRGRPPRLPRPRPRPDIDPRP,2.17
22,RRIRERPPRLPRPRPRPVSVPRP,-0.022
23,RRIRRRPPRLPRPRPRPQSAPRP,0.123
24,RRIRVRPPRLPRPRPRPHMPPRP,-0.725
25,RRIRWRPPRLPRPRPRPQCMPRP,-0.157

row,Sequence,shrunken log2 fold change
1,RRIRLRPPRLPRPRPRPERIPRP,0.0484
2,RRIRYRPPRLPRPRPRPIAKPRP,0.0673
3,RRIRTRPPRLPRPRPRPFVHPRP,-0.138
4,RRIRERPPRLPRPRPRPPKTPRP,-0.124
5,RRIRQRPPRLPRPRPRPKIRPRP,0.00599
6,RRIRNRPPRLPRPRPRPHSAPRP,-0.0468
7,RRIRIRPPRLPRPRPRPRCHPRP,-0.466
8,RRIRQRPPRLPRPRPRPHYHPRP,-0.127
9,RRIRVRPPRLPRPRPRPNTSPRP,-0.391
10,RRIRWRPPRLPRPRPRPQYIPRP,-0.944
11,RRIRHRPPRLPRPRPRPHVQPRP,-0.128
12,RRIRMRPPRLPRPRPRPMNQPRP,0.646
13,RRIRRRPPRLPRPRPRPSMYPRP,-0.345
14,RRIRQRPPRLPRPRPRPDQHPRP,0.00878
15,RRIRMRPPRLPRPRPRPAMDPRP,1.27
16,RRIRSRPPRLPRPRPRPVMVPRP,-0.31
17,RRIRERPPRLPRPRPRPVIQPRP,0.0166
18,RRIRPRPPRLPRPRPRPEWNPRP,0.07
19,RRIRCRPPRLPRPRPRPSINPRP,-0.86
20,RRIRMRPPRLPRPRPRPGFIPRP,0.192
21,RRIRNRPPRLPRPRPRPSWPPRP,-0.0605
22,RRIRMRPPRLPRPRPRPVPWPRP,0.581
23,RRIRARPPRLPRPRPRPQARPRP,0.233
24,RRIRVRPPRLPRPRPRPHGWPRP,0.492
25,RRIRARPPRLPRPRPRPLQNPRP,0.698

row,Sequence,shrunken log2 fold change
1,RRIRSRPPRLPRPRPRPHHDPRP,-0.759
2,RRIRGRPPRLPRPRPRPDMAPRP,0.882
3,RRIRERPPRLPRPRPRPRIAPRP,-0.246
4,RRIRARPPRLPRPRPRPSRVPRP,2.84
5,RRIRIRPPRLPRPRPRPQMQPRP,-0.325
6,RRIRIRPPRLPRPRPRPNLMPRP,-0.377
7,RRIRLRPPRLPRPRPRPRVLPRP,-0.132
8,RRIRCRPPRLPRPRPRPAFGPRP,0.194
9,RRIRIRPPRLPRPRPRPHLGPRP,0.0798
10,RRIRVRPPRLPRPRPRPGKIPRP,-0.346
11,RRIRKRPPRLPRPRPRPYMRPRP,-0.0194
12,RRIRDRPPRLPRPRPRPLIDPRP,0.0319
13,RRIRFRPPRLPRPRPRPGVYPRP,-0.0669
14,RRIRKRPPRLPRPRPRPTPEPRP,0.611
15,RRIRVRPPRLPRPRPRPWHWPRP,-0.0605
16,RRIRKRPPRLPRPRPRPMEYPRP,-0.00192
17,RRIRLRPPRLPRPRPRPASRPRP,0.00832
18,RRIRERPPRLPRPRPRPNTNPRP,-0.0492
19,RRIRWRPPRLPRPRPRPIQVPRP,-0.0332
20,RRIRGRPPRLPRPRPRPVFMPRP,0.0348
21,RRIRIRPPRLPRPRPRPTVAPRP,0.334
22,RRIRMRPPRLPRPRPRPTMDPRP,0.306
23,RRIRIRPPRLPRPRPRPCWNPRP,-0.301
24,RRIRSRPPRLPRPRPRPFREPRP,0.0536
25,RRIRWRPPRLPRPRPRPQQYPRP,-0.284

row,Sequence,shrunken log2 fold change
1,RRIRSRPPRLPRPRPRPLPPPRP,0.518
2,RRIRFRPPRLPRPRPRPLTQPRP,-0.155
3,RRIRHRPPRLPRPRPRPMCTPRP,-0.696
4,RRIRIRPPRLPRPRPRPNWIPRP,-0.565
5,RRIRNRPPRLPRPRPRPEQKPRP,-0.00208
6,RRIRMRPPRLPRPRPRPDEMPRP,0.0155
7,RRIRMRPPRLPRPRPRPSDFPRP,-0.764
8,RRIRARPPRLPRPRPRPFGHPRP,0.132
9,RRIRNRPPRLPRPRPRPSNDPRP,-0.349
10,RRIRRRPPRLPRPRPRPVCHPRP,-0.0349
11,RRIRHRPPRLPRPRPRPAVCPRP,0.0561
12,RRIRPRPPRLPRPRPRPEGIPRP,-0.00608
13,RRIRIRPPRLPRPRPRPAWHPRP,0.031
14,RRIRHRPPRLPRPRPRPLQNPRP,-0.00367
15,RRIRGRPPRLPRPRPRPFGCPRP,-0.0567
16,RRIRARPPRLPRPRPRPYDCPRP,-0.131
17,RRIRIRPPRLPRPRPRPFYRPRP,-0.194
18,RRIRNRPPRLPRPRPRPEGEPRP,0.481
19,RRIRKRPPRLPRPRPRPPKNPRP,0.546
20,RRIRQRPPRLPRPRPRPEYTPRP,-0.11
21,RRIRGRPPRLPRPRPRPDLWPRP,1.79
22,RRIRIRPPRLPRPRPRPDDVPRP,-0.00433
23,RRIRNRPPRLPRPRPRPMCYPRP,-0.0198
24,RRIRSRPPRLPRPRPRPDEDPRP,-0.00181
25,RRIRVRPPRLPRPRPRPCYTPRP,-0.498

row,Sequence,shrunken log2 fold change
1,RRIRERPPRLPRPRPRPDVYPRP,-0.301
2,RRIRKRPPRLPRPRPRPAWNPRP,1
3,RRIRARPPRLPRPRPRPAYMPRP,-0.64
4,RRIRNRPPRLPRPRPRPSSQPRP,-0.208
5,RRIRERPPRLPRPRPRPQNYPRP,-0.409
6,RRIRARPPRLPRPRPRPDKNPRP,-0.00427
7,RRIRMRPPRLPRPRPRPTSYPRP,-0.0286
8,RRIRARPPRLPRPRPRPSFYPRP,-0.155
9,RRIRWRPPRLPRPRPRPNWLPRP,0.0255
10,RRIRMRPPRLPRPRPRPSCIPRP,-0.27
11,RRIRLRPPRLPRPRPRPPKEPRP,0.00696
12,RRIRHRPPRLPRPRPRPNGQPRP,0.024
13,RRIRGRPPRLPRPRPRPQDMPRP,0.0811
14,RRIRARPPRLPRPRPRPDCAPRP,0.826
15,RRIRQRPPRLPRPRPRPRIRPRP,0.024
16,RRIRERPPRLPRPRPRPWETPRP,0.11
17,RRIRMRPPRLPRPRPRPQATPRP,-0.00147
18,RRIRARPPRLPRPRPRPNSIPRP,-0.125
19,RRIRMRPPRLPRPRPRPINEPRP,-0.0839
20,RRIRNRPPRLPRPRPRPHQSPRP,-0.104
21,RRIRYRPPRLPRPRPRPMEEPRP,-0.138
22,RRIRWRPPRLPRPRPRPWMRPRP,0.526
23,RRIRMRPPRLPRPRPRPFRFPRP,0.089
24,RRIRIRPPRLPRPRPRPYNDPRP,-0.313
25,RRIRIRPPRLPRPRPRPMNKPRP,-0.627

row,Sequence,shrunken log2 fold change
1,RRIRKRPPRLPRPRPRPSHHPRP,0.02
2,RRIRQRPPRLPRPRPRPAYYPRP,-0.514
3,RRIRYRPPRLPRPRPRPDTWPRP,-0.0135
4,RRIRGRPPRLPRPRPRPFRHPRP,0.0102
5,RRIRWRPPRLPRPRPRPAYAPRP,0.531
6,RRIRRRPPRLPRPRPRPCKSPRP,0.263
7,RRIRLRPPRLPRPRPRPYHTPRP,-0.484
8,RRIRERPPRLPRPRPRPCLPPRP,-0.259
9,RRIRLRPPRLPRPRPRPCGPPRP,-0.107
10,RRIRERPPRLPRPRPRPIHMPRP,-0.0835
11,RRIRKRPPRLPRPRPRPNNLPRP,-0.218
12,RRIRQRPPRLPRPRPRPTKIPRP,-0.13
13,RRIRHRPPRLPRPRPRPHMIPRP,0.13
14,RRIRMRPPRLPRPRPRPREAPRP,1.82
15,RRIRVRPPRLPRPRPRPDGDPRP,-0.339
16,RRIRQRPPRLPRPRPRPFFSPRP,-0.313
17,RRIRGRPPRLPRPRPRPWSTPRP,0.243
18,RRIRQRPPRLPRPRPRPEPLPRP,0.287
19,RRIRGRPPRLPRPRPRPPVSPRP,0.604
20,RRIRLRPPRLPRPRPRPNRQPRP,-0.407
21,RRIRFRPPRLPRPRPRPDQPPRP,0.57
22,RRIRVRPPRLPRPRPRPPSWPRP,0.34
23,RRIRDRPPRLPRPRPRPEWLPRP,0.382
24,RRIRCRPPRLPRPRPRPCTEPRP,-0.186
25,RRIRTRPPRLPRPRPRPCTQPRP,-0.123
